For two molecules, hBLyS B-cell proliferation (IC50), IC50 mBLyS stimulated, mouse splenic B-cell proliferation and IC50 hBLyS stimulated, mouse splenic B-cell proliferation results are on record in US20170101466A1.

Assay [1] has as its target soluble human BLyS (human) (UniProt Q9Y275). The assay is described as follows: cell-based or functional assay.
The target in assay [2] is soluble mouse BLyS (mouse) (UniProt Q9WU72). The assay is described as follows: cell-based or functional assay.

B1: 14F11 IgG expressed in HEK293 cells (antibody, V domains shown)
VH: QVQLVQSGAEVKKPGSSVKVSCKASGGTFSSYAISWVRQAPGQGLEWMGRINPNSGGTNYAQKFQGRVTMTRDTSISTAYMELSRLRSDDTFVYYCAREGYDFLTGYTLGGMDVWGQGTTVTVSS
VL: QSVLTQPPSVSAAPGQKVTISCSGSSSNIGNNYVSWYQQLPGTAPKLLIYDNNKRPSGIPDRFSASKSGTSASLAISGLQAEDEADYYCQSYDSSLSGVVFGGGTKLTVLG
Molecule B1 yielded a hBLyS B-cell proliferation (IC50) in assay [1] of 12.

B2: human TACI (immunoglobulin fusion) (Fc fusion, part only; not given: immunoglobulin part, UniProt O14836 30-110, looked up, part only)
chain, part: AMRSCPEEQYWDPLLGTCMSCKTICNHQSQRTCAAFCRSLSCRKEQGKFYDHLLRDCISCASICGQHPKQCAYFCENKLRS
Molecule B2 displayed an IC50 mBLyS stimulated, mouse splenic B-cell proliferation in assay [2] of 7 ng/mL. Further, the IC50 hBLyS stimulated, mouse splenic B-cell proliferation in assay [1] came out at 7 ng/mL.
